Source: the supplement of paper PMC7877785
± gives the uncertainty stated by the source.

Assay: self-splicing fitness, log relative to wild type (ln ratio); higher = more splicing; Tetrahymena group I intron in knt gene, E. coli kanamycin selection, DiMSum; sequences stand for … in CUCUCU…GGAGGGAAAAGUUAUCAGGCAUGCACCUGGUAGCUAGUCUUUAAACCAAUAGAUUGCAUCGGUUUAAAAGGCAAGACCGUCAAAUUGCGGGAAAGGGGUCAACAGCCGUUCAGUACCAAGUCUCAGGGGAAACUUUGAGAUGGCCUUGCAAAGGGUAUGGUAAUAAGCUGACGGACAUGGUCCUAACCACGCAGCCAAGUCCUAAGUCAACAGAUCUUCUGUUGAUAUGGAUGCAGUUCACAGACUAAAUGUCGGUCGGGGAAGAUGUAUUCUUCUCAUAAGAUAUAGUCGGACCUCUCCUUAAUGGGAGCUAGCGGAUGAAGUGAUGCAACACUGGAGCCGCUGGGAACUAAUUUGUAUGCGAAAGUAUAUUGAUUAGUUUUGGAGUACUCGUGGUCG
Procedure, shortened: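 Fitness was computed with DiMSum as the error-weighted combination of replicate fold changes, kanamycin versus none, each normalised to wild type. The library randomised all eight intron nucleotides of the P1ex region, with the intron placed in the knt kanamycin-resistance gene on pET-22b(+) in E. coli BL21(DE3). Six replicate transformations were grown overnight at 37°C or 30°C on LB agar with or without 25 μg/mL kanamycin, plus 100 μg/mL carbenicillin, 50 μM IPTG and 0.2% rhamnose. Pooled colonies were amplicon-sequenced on an Illumina HiSeq 2500.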

Sequence	self-splicing fitness (ln) (30 °C)	self-splicing fitness (ln) (37 °C)
CCAAAGCAAUAUUACGGUCA	-3.54 ± 0.35	-1.78 ± 0.25
UGACAGCAAUAUUACGUUGG	-2.08 ± 0.12	-1.82 ± 0.13
AAUAAGCAAUAUUACGACUA	-0.696 ± 0.12	-0.486 ± 0.093
ACAAAGCAAUAUUACGUGGC	-3.72 ± 0.21	-2.91 ± 0.18
AAGGAGCAAUAUUACGACGC	-4.09 ± 0.43	-1.13 ± 0.21
CUCUAGCAAUAUUACGUACU	-3.33 ± 0.27	-2.39 ± 0.25
UAUGAGCAAUAUUACGUUCU	-3.57 ± 0.29	-2.67 ± 0.34
AGUAAGCAAUAUUACGCAGC	-3.52 ± 0.32	-1.8 ± 0.3
GGAUAGCAAUAUUACGGGCA	-2.6 ± 0.26	-0.844 ± 0.11
CCACAGCAAUAUUACGACGU	-3.18 ± 0.18	-2.52 ± 0.15
ACUAAGCAAUAUUACGCGGU	-2.65 ± 0.14	-2.59 ± 0.21
GCGAAGCAAUAUUACGCCAA	–	-1.82 ± 0.39
AACAAGCAAUAUUACGAGGA	-1.76 ± 0.14	-2.42 ± 0.16
UACCAGCAAUAUUACGGAUC	-1.46 ± 0.058	0.242 ± 0.084
GGUUAGCAAUAUUACGAAAU	-1.45 ± 0.11	-0.492 ± 0.14
ACUUAGCAAUAUUACGGCGU	-0.204 ± 0.088	0.491 ± 0.13
GACAAGCAAUAUUACGUAAA	-1.75 ± 0.069	-1.09 ± 0.091
AUACAGCAAUAUUACGAACC	-2.11 ± 0.15	-0.458 ± 0.16
GAGGAGCAAUAUUACGGAGC	–	-0.748 ± 0.26
GGUCAGCAAUAUUACGUUAG	-2.17 ± 0.14	-1.68 ± 0.18
AUGAAGCAAUAUUACGAAUG	-1.25 ± 0.095	-0.913 ± 0.1

Sequence	self-splicing fitness (ln) (30 °C)	self-splicing fitness (ln) (37 °C)
CUAGAGCAAUAUUACGUGCA	-3.88 ± 0.21	-2.18 ± 0.19
GCGCAGCAAUAUUACGAUAC	-1.4 ± 0.081	-1.49 ± 0.11
CAGUAGCAAUAUUACGCAGG	-1.59 ± 0.096	-0.318 ± 0.11
ACGCAGCAAUAUUACGUGUG	-2.86 ± 0.11	-2.31 ± 0.12
GCCAAGCAAUAUUACGACCC	-0.14 ± 0.14	-0.813 ± 0.17
UGUUAGCAAUAUUACGCCGG	-0.866 ± 0.13	-0.696 ± 0.19
AACCAGCAAUAUUACGCACC	0.0606 ± 0.077	0.308 ± 0.1
AGCCAGCAAUAUUACGUUAA	-2.44 ± 0.17	-2.59 ± 0.2
AUACAGCAAUAUUACGGGAU	-0.898 ± 0.076	-0.747 ± 0.1
CGUAAGCAAUAUUACGCGCU	-2.03 ± 0.14	-1.52 ± 0.15
ACAGAGCAAUAUUACGUCUA	-3.22 ± 0.33	-1.73 ± 0.29
AGGAAGCAAUAUUACGAAAC	-2.83 ± 0.38	–
CCUGAGCAAUAUUACGGUCG	-3.95 ± 0.19	-2.97 ± 0.19
GUUAAGCAAUAUUACGAUCU	-0.419 ± 0.087	-0.373 ± 0.11
GACUAGCAAUAUUACGUUAU	-2.4 ± 0.098	-1.28 ± 0.11
CCCAAGCAAUAUUACGACUU	-4.21 ± 0.2	-2.9 ± 0.17
ACGGAGCAAUAUUACGUCGA	-2.03 ± 0.38	-2.07 ± 0.28
ACUCAGCAAUAUUACGCGAU	-3.34 ± 0.16	-2.18 ± 0.2
UAUGAGCAAUAUUACGGGUC	-3.72 ± 0.23	-2.91 ± 0.25
GUCCAGCAAUAUUACGACUA	-1.52 ± 0.11	-0.869 ± 0.11
CGGGAGCAAUAUUACGGCAC	-3.74 ± 0.28	-1.62 ± 0.23

Sequence	self-splicing fitness (ln) (30 °C)	self-splicing fitness (ln) (37 °C)
GAGGAGCAAUAUUACGAAAG	–	-2.01 ± 0.33
CGCUAGCAAUAUUACGGGGC	-2.87 ± 0.22	-2.29 ± 0.2
AUCUAGCAAUAUUACGACUG	-2.01 ± 0.14	-1.07 ± 0.15
ACAAAGCAAUAUUACGCUCG	-0.887 ± 0.08	0.156 ± 0.12
UUCCAGCAAUAUUACGGGGA	–	-2.87 ± 0.29
AGUUAGCAAUAUUACGGUGC	-3.15 ± 0.17	-2.44 ± 0.2
GCUCAGCAAUAUUACGAGGU	-1.06 ± 0.12	-2.08 ± 0.23
GUCUAGCAAUAUUACGGAGU	-0.693 ± 0.096	0.121 ± 0.093
GACAAGCAAUAUUACGUACG	-1.82 ± 0.077	-0.508 ± 0.091
CUAGAGCAAUAUUACGUACA	-2.59 ± 0.36	-1.64 ± 0.32
CGCCAGCAAUAUUACGUGCG	-3.99 ± 0.26	-2.33 ± 0.22
ACGAAGCAAUAUUACGCGGU	-3.65 ± 0.18	-1.48 ± 0.1
CUAGAGCAAUAUUACGCUUA	-3.65 ± 0.3	-2.77 ± 0.26
CCCCAGCAAUAUUACGACGC	-3.17 ± 0.25	-3.22 ± 0.35
ACAGAGCAAUAUUACGCGAA	-3.58 ± 0.25	-1.21 ± 0.18
GUGCAGCAAUAUUACGUUAU	-1.84 ± 0.084	-0.973 ± 0.098
UUGCAGCAAUAUUACGCCUG	-2.63 ± 0.15	-1.6 ± 0.19
UGAUAGCAAUAUUACGAUCG	-0.236 ± 0.14	-0.942 ± 0.15
CUGGAGCAAUAUUACGACGA	-1.9 ± 0.29	-1.7 ± 0.33
